Reference: publication PMC2888147 (The Biochemical journal, 2010)

Assays:
[1] = biological target: T1, His-tagged KCNQ1 full-length C-terminus (Q1Cf, 349-676) (human, UniProt P51787 349-676); experiment: SPR
T1 sequence (looked up): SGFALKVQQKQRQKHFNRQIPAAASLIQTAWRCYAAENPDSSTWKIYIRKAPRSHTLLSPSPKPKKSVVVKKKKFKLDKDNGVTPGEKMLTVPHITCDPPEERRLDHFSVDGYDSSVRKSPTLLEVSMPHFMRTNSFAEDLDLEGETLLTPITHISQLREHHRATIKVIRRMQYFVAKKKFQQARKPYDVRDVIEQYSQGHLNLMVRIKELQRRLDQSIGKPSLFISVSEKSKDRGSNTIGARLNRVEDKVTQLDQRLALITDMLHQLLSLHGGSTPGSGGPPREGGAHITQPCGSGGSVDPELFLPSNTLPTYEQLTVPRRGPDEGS

[2] = biological target: T2, His-tagged KCNQ1 C-terminal fragment Q1C1 (349-480) (human, UniProt P51787 349-480); experiment: SPR
T2 sequence (looked up): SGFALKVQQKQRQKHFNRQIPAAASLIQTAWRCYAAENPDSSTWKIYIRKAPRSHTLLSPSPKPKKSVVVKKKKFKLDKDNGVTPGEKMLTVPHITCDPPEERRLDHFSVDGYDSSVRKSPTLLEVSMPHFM

B1: His-tagged KCNE1 C-terminus (E1C) (domain or fragment)
chain: not shown
Kd [1]: 3.2 ± 0.7 µM
Kd [2]: 4.6 ± 1.4 µM
